Entries after “also recorded” stand apart in the source; their conditions may differ.

For one data set, the system named is mouse Red Blood Cells. Put plainly: Haemolysis assay. It counts as cell-based. The conditions noted are these: 5 × 10^7 mouse erythrocytes in 1 mL PBS pH 7.4, 2, 1 or 0.5 µM, 15 min, absorbance 540 nm, n = 3. The protocol:
Haemolysis studies were conducted as described in [72]. Briefly, freshly withdrawn blood samples were centrifuged at 1000× g for 10 min to obtain erythrocytes; the pellet was then washed thrice with sterile PBS (pH 7.4). Erythrocytes (5 × 10^7 cells in 1 mL of PBS for each experimental condition) were incubated with 2, 1 or 0.5 µM An2-PAPTP or TAT-PAPTP for 15 min. The samples were then centrifuged and absorbance (Abs) of the supernatant was measured at 540 nm. Triton X-100 1% and PBS were used as positive and negative control, respectively.
The percentage of haemolysis was calculated with the following equation:% haemolysis = [(Abssample − AbsPBS)/AbsTriton X-100 − AbsPBS)] × 100

The next data set has as its system C57BL mice. Put plainly: Observed toxicity after tail vein injection. The conditions noted are these: 5 µmoles/kg bw by tail vein injection in mouse plasma; no proper toxicological study. It counts as in vivo. The protocol: TAT-PAPTP (5 µmoles/kg bw) was administered by tail vein injection to 2 C57BL mice. […] The observed toxicity was not due to the use of plasma, since mice were not made ill by the administration of PAPTP or An2-PAPTP in the same vehicle (see below, Section 2.7).
(§1) A stock solution of the peptide-PAPTP conjugates was prepared in DMSO. TAT-PAPTP was administered at 8 and 5 μmol/kg bw and An2-PAPTP only at 5 μmol/kg bw. The calculated quantity of drugs was diluted from the stock solution in saline or mouse plasma to a final volume of 200 μL.

The format of data set [1] is in vivo, mouse. The conditions noted are these: An2-PAPTP 5 µmoles/kg bw i.v. in mouse plasma. The protocol:
The brains of these mice were analyzed to evaluate the presence of the construct in the tissue (see Section 4.7). Each brain was homogenized and incubated with an equal volume of phosphate-buffered saline (PBS, pH 12.5) for 24 h; 10 volumes of ethyl acetate were then added. After vigorous mixing, the organic phase was collected, concentrated and analyzed via HPLC. This procedure allows hydrolysis of the carbamate bond, leading to the extraction of PAPTPL, which is considered proportional to the amount of peptide-PAPTP conjugate (or its fragments) present in the brain.
The protocol set up for PAPTPL recovery turned out to be inefficient for the quantification of TAT-PAPTP. An alternative protocol was thus developed. Tissue obtained from untreated mice was weighed and homogenized with PBS pH 7.4 (1 vol) with a potter. The pre-established amount of analyte was added into tissue homogenates and, after thorough vortexing, 1 vol of PBS pH 12.5 was added and the sample was incubated with intermittent vortexing at 60 °C for 24 h. This step is required to allow the hydrolysis of the carbamate bond connecting the peptide and PAPTPL. 10 vol of ethyl acetate were added and, after vortexing and sonication for 2 min, the sample was centrifuged at 12,000× g, 7 min, Room Temperature. The organic phase was collected and concentrated with Hetovac VR-1. ACN was added to the concentrated sample to allow the resuspension of PAPTPL and analyzed via HPLC. Quantification was as described for PAPTPL.
Brain and liver obtained from untreated mice were weighed and homogenized with PBS pH 7.4 (1 vol) with a potter. The pre-established amount of analyte was added into tissue homogenates and, after thorough vortexing, 5 vol of acetone were added and the sample was sonicated for 2 min. Subsequently, 5 vol of ACN containing 0.1% trifluoracetic acid (TFA) were added and the sample was sonicated for 5 min. The sample was then centrifuged at 12,000× g for 7 min at 4 °C and the supernatant was collected, concentrated with a Hetovac VR-1, and analyzed via HPLC-UV.
To quantify the amount of An2-PAPTP stuck in the tissue, the pellet remaining after the procedure described above was incubated with intermittent Vortexing at 60 °C for 3 h with PBS pH 12.5/ACN 1:1 and then centrifuged at 12,000× g for 7 min. HPLC-UV analysis of the supernatant, measuring PAPTPL hydrolyzed from the tissue, thus indirectly reflects the amount of An2-PAPTPL in the pellet (Scheme 3). Quantification was as described for PAPTPL.
as §1

Take `CC[C@H](C)[C@H](NC(=O)Oc1ccc(CCCOc2ccc([P+](CCCc3ccc(OCCCCOc4c5ccoc5cc5oc(=O)ccc45)cc3)(c3ccccc3)c3ccccc3)cc2)cc1)C(=O)N[C@H](C(=O)N[C@@H](Cc1ccccc1)C(=O)N[C@@H](Cc1ccccc1)C(=O)N[C@@H](Cc1ccc(O)cc1)C(=O)NCC(=O)NCC(=O)N[C@@H](CO)C(=O)N[C@@H](CCCNC(=N)N)C(=O)NCC(=O)N[C@@H](CCCCN)C(=O)N[C@@H](CCCNC(=N)N)C(=O)N[C@@H](CC(N)=O)C(=O)N[C@@H](CC(N)=O)C(=O)N[C@@H](Cc1ccccc1)C(=O)N[C@@H](CCCCN)C(=O)N[C@H](C(=O)N[C@@H](CCC(=O)O)C(=O)N[C@@H](CCC(=O)O)C(=O)N[C@@H](Cc1ccc(O)cc1)C(=O)O)[C@@H](C)O)[C@@H](C)O` [An2-PAPTP]: the “haemolysis (release of haemoglobin)” value in the data set on mouse Red Blood Cells was “did not induce a measurable release of haemoglobin”. Also, the “observed toxicity in mice” value with C57BL mice is reported as “not made ill; also recorded: considerably less toxic than TAT-PAPTP; also recorded: did not show toxicity”. Further, in data set [1] (15 min, PAPTPL after carbamate hydrolysis, mean ± SEM, n = 5), the “Brain Psoralenic Species (nmol/g Tissue), 15 min” value came to 0.3 ± 0.1 nmol/g Tissue. For the same compound, the “Brain Psoralenic Species (nmol/g Tissue), 30 min” value in data set [1] (30 min, PAPTPL after carbamate hydrolysis, mean ± SEM, n = 4) is 0.4 ± 0.6 nmol/g Tissue. The “presence in brain one hour post-injection” value in data set [1] (one hour) is on record as “only a trace could be detected”.
